{
  "source": "patent US9962427B2",
  "about": "“Treatment of right ventricular dysfunction due to pressure overload” (OTTAWA HOSPITAL RESEARCH INSTITUTE, priority 2016, dated 2018)",
  "key": {"rats [1]": {"system": "rats", "assay": "In vivo growth reversal analysis (ECHO, HW:BW, CD31 capillary density) after 2 week delivery and follow-on", "set-up": "species or system rat", "conditions": "for ventricle wall thickness at 2 weeks: CT-1 6 μg/kg/hr or PE 10 mg/kg/day for 2 weeks", "from_the_text": "(§1) FIGS. 3A, 3B, and 3C. […] Arrows (in upper panels) point to myocardial wall (RVLW). Dotted lines (in lower panels) show inner ventricle chambers.\nFIGS. 4A and 4B. Beneficial/physiologic cardiac adaptive compensation and reversion to baseline cardiac dimensions is observed upon 2 weeks of hCT1 administration in vivo followed by hCT1 withdrawal for 4 weeks. Identical follow-on procedure and analysis as conducted in FIG. 3 above. FIG. 4A Whole hearts and Hematoxylin & Eosin (H & E) stained sections and quantification of the heart weight to body weight (HW:BW) ratio 6 weeks post-treatment with hCT1 or PE.\n(§2) CT-1 was tested in vivo to determine whether its administration would induce a myocardial adaptive remodeling characteristic of physiologic compensation (FIGS. 3A, 3B, and 3C). Osmotic minipumps containing PBS control (Ctrl) or hCT1 (6 μg/kg/hr) or Isoproterenol (ISO, 1 mg/kg/day) were implanted subcutaneously in rats. ISO is a beta-adrenergic receptor agonist and continuous infusion with ISO in rats is known to induce pathological cardiac hypertrophy and cardiomyocyte damage (in both the right and left ventricles) which progresses to heart failure (Morisco et al (2001) J Mol Cell Cardiol 33:561-573 and Grimm et al (1998) Cardiovascular Research 37:91-100). After 2 weeks of treatment, M-mode ECHO analysis was used to assess myocardial structure/function (FIG. 3A). In this model, an increased right ventricle lateral wall (RVLW) thickness indicates the presence of myocardiocytes growth, and an increased ratio of the right to left ventricle internal diameters (RVID/LVID) is an indicator of pathologic hypertrophy. An increased RVLW thickness but constant or reduced RVID:LVID ratio is an indicator of adaptive compensatory RV remodeling. Both hCT1 and ISO induced a significant increase in RVLW thickness (12% and 32% fold increase, respectively) compared to control rats (n=3; * and **, P<0.05). […] An in vivo growth reversal analysis was also conducted. Following a 2 week delivery of CT-1 protein (6 μg/kg/hr) or PE (10 mg/kg/day) as the pathologic control in this case, animals were then assessed for cardiac structure/function at a 6 week follow-on period. […] Collectively, these studies support the contention that CT-1 elicits a reversible physiologic cardiac adaptive compensation."}, "Mef2": {"system": "Mef2", "assay": "Mef2 luciferase reporter in primary neonatal cardiomyocytes", "format": "cell-based", "conditions": "hCT1 0.5 nM; for Mef2 activation after 24 hrs: PE 100 μM, PAC-1 25 μM", "description": "FIGS. 6A, 6B, and 6C. Stimulation with hCT1 causes sustained activation of NF-κB and Stat3 with limited activation of Mef2, as well as limited Nfat activation; the latter two indices are distinct expression patterns from pathologic hypertrophic stimulation. FIG. 6A Primary neonatal cardiomyocytes were transfected with luciferase reporter plasmids (NF-κB or Mef2), as indicators of hypertrophic activity. Luciferase activity was measured after treatments for 24 hrs with: hCT1 (0.5 nM), PE (100 μM), or procaspase 3 activating compound 1, PAC-1 (25 μM) (left). Treatments at early timepoints (30 min, 1 hr, and 3 hr) were also conducted for hCT1 (right). FIG. 6B Primary neonatal cardiomyocytes were transfected with a luciferase reporter plasmid for Stat3. Luciferase activity was measured after treatments for 24 hrs with: hCT1 (0.5 nM), PE (100 μM), or procaspase 3 activating compound 1, PAC-1 (25 μM) (left) and at earlier time points (right). FIG. 6C Primary neonatal cardiomyocytes were infected with a luciferase-based Nfat reporter Adenovirus (Nfat-AdV). Luciferase activity was measured after treatments for 24 hrs with: hCT1 (0.5 nM), PE (100 μM), or procaspase 3 activating compound 1, PAC-1 (25 μM) (left) and at earlier time points (right)\nThe signaling pathways that CT-1 engages in mediating physiologic adaptive compensatory remodeling were examined. The applicants predicted that cardiomyocyte adaptive remodeling mediated by CT-1 results (in part) from the induction of a specific transcriptional program, which is distinct from that of pathologic hypertrophic response. To address this hypothesis, the applicants tested the activity of two well-known transcription factor families that have been linked to both physiologic and pathologic cardiomyocyte growth, the Mef2 (Kolodziejczyk et al. 1999 Curr Biol. 9, 1203-1206; Kim et al. 2008, J Clin Invest. 118, 124-132.) and the NF-κB family (Gordon et al. 2011, Circ Res. 108, 1122-1132). Primary neonatal cardiomyocytes were transfected with luciferase reporter plasmids (NF-κB and Mef2) to be used as a read out of transcriptional activity. Luciferase activity was determined after treatments for 24 hrs with: hCT1 (0.5 nM), PE (100 μM), or procaspase 3 activating compound 1, PAC-1 (25 μM). […] This pattern of transcription factor activation was distinct from that induced by PE and by the caspase 3 specific activating compound PAC-1."}, "[2]": {"system": "primary neonatal cardiomyocytes", "assay": "Morphometric analysis of stimulated primary neonatal cardiomyocytes (cell area, length:width ratio)", "format": "cell-based", "conditions": "24 hours stimulation, PE 100 μM; for cell areas increases: versus serum-free control", "description": "FIGS. 1A and 1B. Morphometric analysis of primary cardiomyocytes stimulated with human Cardiotrophin-1 (hCT1) and/or the hypertrophy agonist Phenylephrine (PE).\nPhenylephrine (PE) was used as a pathological adaptive compensation control as it is a known target of the stress-activated G-protein coupled alpha (α)-adrenergic pathway. Primary neonatal cardiomyocytes were stimulated for 24 hours with hCT1 (0.5 nM), PE (100 μM), the combination of hCT1 and PE, or control serum-free (SF) media followed by morphometric analysis (cell area and length:width ratio) (FIG. 1A). […] This CT-1 mediated growth is typical of the cardiomyocyte adaptations that occur during physiologic adaptive compensation with an L:W ratio that is divergent from PE induced growth."}, "cardiomyocytes": {"system": "cardiomyocytes", "description": "FIG. 7B Quantitation of cell viability analysis as shown in (A). FIG. 7C Quantification of PI cell viability FACS analysis following a 24 hrs treatment of cardiomyocytes with H2O2 in the presence or absence of hCT1. Pre-treatment with PI3K inhibitor (LY294002, 50 μM) before H2O2 was also tested.\nCardiomyocytes were treated with control serum-free media or with H2O2 (300 μM, 1 hr) to induce cell death in the presence or absence of hCT1 (0.5 nM). After 24 hrs, cells were incubated with the cell viability marker Propidium Iodide (PI) (1 μg/mL) and analyzed by FACS (Ex: 535 nm, Em: 617 nm) for viable cells; i.e. cells inside the gated region of the side scatter (SS) versus PI plot (FIG. 7A). […] The PI3K pathway is a critical feature of physiological cardiac adaptive compensation and is a key protective feature distinguishing it from pathological adaptive compensation. Therefore, cardiomyocytes were pre-treated with a PI3K inhibitor (LY294002, 50 μM) before CT-1/H2O2 treatment."}, "rats [3]": {"system": "rats", "assay": "M-mode ECHO after 2 weeks of osmotic minipump delivery in rats", "format": "in vivo, rat", "conditions": "hCT1 6 μg/kg/hr", "description": "as §1, §2"}, "[4]": {"conditions": "2 week delivery, 6 week follow-on"}},
  "data": [
    {"molecule": "CNC[C@H](O)c1cccc(O)c1", "note": "[PE, Phenylephrine]", "values": [
      {"measurement": "RVID/LVID ratio at 6 weeks post-treatment compared to control rats", "setting": "rats [1]; [4]", "value": "maintained their increased RVID/LVID ratio"},
      {"measurement": "heart weight to body weight ratio at 6 weeks post-treatment", "setting": "rats [1]; [4]", "value": "increased heart weight to body weight ratio"},
      {"measurement": "wall thickness / cardiac dimensions at 6 weeks post-treatment", "setting": "rats [1]; [4]", "value": "retaining the substantial increase in wall thickness"},
      {"measurement": "cardiac capillary density (CD31 immunostained right ventricle sections)", "setting": "rats [1]; 6 weeks post-treatment, compared to CT-1 treated and control animals", "value": "significant decrease in cardiac capillary density"},
      {"measurement": "ventricle wall thickness at 2 weeks", "setting": "rats [1]", "value": "increase in (both) ventricle wall thickness"},
      {"measurement": "Mef2 activation after 24 hrs", "setting": "Mef2", "value": "significant activation of Mef2"},
      {"measurement": "L:W ratio, in words", "setting": "[2]", "value": "same or shortened L:W ratio"},
      {"measurement": "cell areas increases", "setting": "[2]; hCT1 0.5 nM", "value": 171, "unit": "%"}
    ]},
    {"molecule": "hCT1: Recombinant human CT1 protein; 201 amino acid sequence, GenBank Accession Nos AAD12173 and AAA85229 (human) (protein, UniProt Q16619 1-201, looked up) Cardiotrophin-1: MSRREGSLEDPQTDSSVSLLPHLEAKIRQTHSLAHLLTKYAEQLLQEYVQLQGDPFGLPSFSPPRLPVAGLSAPAPSHAGLPVHERLRLDAAALAALPPLLDAVCRRQAELNPRAPRLLRRLEDAARQARALGAAVEALLAALGAANRGPRAEPPAATASAASATGVFPAKVLGLRVCGLYREWLSRTEGDLGQLLPGGSA", "values": [
      {"measurement": "viability improved vs. H2O2", "setting": "cardiomyocytes; H2O2 in the presence of hCT1 (FIG. 7C)", "value": 154, "unit": "%"},
      {"measurement": "increase in viability upon pre-treatment", "setting": "cardiomyocytes; hCT1 0.5 nM, 1 hour H2O2 300 μM, viability at 24 hours (FIG. 7B)", "value": "~34", "unit": "%"},
      {"measurement": "RVID/LVID ratio, in words", "setting": "rats [3]", "value": "did not develop this pathologic state of cardiac hypertrophy"},
      {"measurement": "increase in RVLW thickness compared to control rats", "setting": "rats [3]; ISO 1 mg/kg/day, subcutaneous minipump", "value": 12, "unit": "% fold increase"},
      {"measurement": "wall thickness / cardiac dimensions at 6 weeks post-treatment", "setting": "rats [1]; [4]", "value": "complete return to baseline cardiac dimensions for wall thickness"},
      {"measurement": "ventricle wall thickness at 2 weeks", "setting": "rats [1]", "value": "increase in (both) ventricle wall thickness"},
      {"measurement": "Mef2 luciferase activity at 1 hr and 3 hr", "setting": "Mef2", "value": "significant activation"},
      {"measurement": "Mef2 activation after 24 hrs", "setting": "Mef2", "value": "only NF-κB transcriptional activity was sustained"},
      {"measurement": "L:W ratio (length to width ratio)", "setting": "[2]; hCT1 0.5 nM", "value": 172, "unit": "%"},
      {"measurement": "cell areas increases", "setting": "[2]; hCT1 0.5 nM", "value": 162, "unit": "%"}
    ]}
  ]
}
